B1: ribonuclease A (protein, UniProt P61823 27-150, looked up)
Ribonuclease pancreatic: KETAAAKFERQHMDSSTSAASSSNYCNQMMKSRNLTKDRCKPVNTFVHESLADVQAVCSQKNVACKNGQTNCYQSYSTMSITDCRETGSSKYPNCAYKTTQANKHIIVACEGNPYVPVHFDASV
notes: control polypeptide in ELISA

What was measured:
[1] = cited from earlier work
[2] = test system: anti-Ro/SS-A antibodies (human autoimmune serum); test: ELISA, immobilized peptide reacted with human autoimmune anti-Ro/SS-A serum; assay type: binding
Source text: Human antisera. Anti-Ro/SS-A sera were selected by the presence of a single precipitin line in Ouchterlony analysis having complete identify with prototypic sera used in studies of Lieu et al. (17). The absence of antibodies to other nuclear antigens such as La/SS-B, U1 -RNP and Sm was also confirmed by ELISA. Monospecific anti-Sm and anti-La/SS-B human autoimmune sera were originally obtained from the laboratory of Dr. E. M. Tan (Scripps Research Institute, La Jolla, Calif.).
The native Ro/SS-A antigen (5 ug/ml) or synthetic peptide (10 ug/ml) in PBS was added to wells of a microtiter plate and incubated 16 hours at 4° C. The plates were washed with PBS-Tween and the remaining sites were coated with 1% BSA for 1 hour. After washing 3 times with PBS-Tween, sera diluted with 1% BSA, 0.5% bovine gamma globulin (BGG) in PBS-Tween were added and incubated for 2 hours. The plates were then washed 3 times with PBS-Tween. Peroxidase conjugated goat-anti-human IgG diluted 1:3000 in PBS-Tween containing 1% BSA and 0.5% BGG was added and incubated for 2 hours at room temperature. The plates were washed in a similar manner. […] The optical density was measured using a Titertek Multiskan brand ELISA plate reader.

Row | Molecule | isoelectric point measured from the native purified protein [1] | binding to anti-Ro/SS-A serum in ELISA (in words) [2]
1 | native purified protein: native 60 kD Ro protein purified from the human Wil-2 cell line | 4.67 | –
2 | B1 | – | did not react
